Test [1] has as its target T1, vasoactive intestinal peptide (VIP) (human).
T1 peptide: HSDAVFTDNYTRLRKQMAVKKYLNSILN
Briefly: SPR; target VIP. Here is the method:
(§1) In brief, antibody and peptide interaction was determined on a Biacore S200 (GE Healthcare) by method previously described (Andreu and Gomes 2002). An anti-Human IgG Fc capture antibody was immobilized on a CM5 biosensor chip via standard amine coupling. Anti-PACAP antibodies were injected and captured to 200 to 400 response units (RU),). PACAP38, PACAP27 and VIP were diluted in HBS-EP+buffer containing 0.1% w/v BSA (Bovostar, catalog number BSAS1.0) and 0.15 M NaCl (Sigma-Aldrich catalog number S7653), pH 7.4. Binding kinetics of antibodies were determined by injection of two-fold serial dilutions of PACAPs (12 nm to 0 nM) and VIP (1200 nM to 0 nM) in running buffer at 37° C. with a flow rate of 40 uL/min for 2 min followed by a dissociation for 10 minutes. For subsequent cycles, the chip was regenerated using 0.85% phosphoric acid. Data was analysed with the Biacore S200 Evaluation Software (ver 1.0). Association rate (kₐ) and dissociation rate (kd) constants were determined using a simple one-to-one Langmuir binding model and used to calculate the equilibrium dissociation constant (KD).
(§2) The selectivity of antibody 890C was assessed by comparing the inhibition of PACAP38-signalling to inhibition of VIP-signalling in a cyclic AMP (cAMP) measuring cell-based functional assay.

Test [2] concerns the target T2, pituitary adenylate cyclase-activating peptide, 27-amino acid peptide (PACAP27) (human, not fully specified).
T2 peptide: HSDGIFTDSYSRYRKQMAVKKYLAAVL
Kind of test: SPR; target PACAP27. Here is the method: as §1, §2
Background: SPR reads the build-up and loss of mass on a sensor chip optically.

Test [3] deals with T3, pituitary adenylate cyclase-activating peptide, 38-amino acid peptide (PACAP38) (human, not fully specified).
T3 construct: The background calls the active forms alpha-amidated
T3 peptide: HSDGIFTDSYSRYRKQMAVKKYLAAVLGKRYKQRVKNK
Kind of test: SPR; target PACAP38. Here is the method: as §1, §2

Test [4] has as its target T3, pituitary adenylate cyclase-activating …. Kind of test: cell-based or functional assay.
The target is the same in test [5]. Briefly: cell-based or functional assay.
Test [6] has the same target. Briefly: cell-based or functional assay.
Test [7] has the same target. Briefly: cell-based or functional assay.
Test [8] addresses T1, vasoactive intestinal peptide (VIP). Kind of test: cell-based or functional assay.
In test [9] the target is T3, pituitary adenylate cyclase-activating …. Kind of test: SPR (Biacore), 37 C, antibody captured by anti-human IgG Fc, PACAP-38 as analyte. On the procedure:
as §1

The target is the same in test [10]. Kind of test: SPR (Biacore) off-rate ranking, antibody captured from supernatant, single injection of 33.3 nM PACAP38. Here is the method:
as §1, with “Binding kinetics of antibodies were determined by injection of two-fold serial dilutions of PACAPs (12 nm to 0 nM) and VIP (1200 nM to 0 nM) in running buffer at 37° C. with a flow rate of 40 uL/min for 2 min followed by a dissociation for 10 minutes.” left out

Test [11] concerns the target T4, Peptide Histidine Methionine (PHM).
T4 peptide: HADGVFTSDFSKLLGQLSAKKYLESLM
Briefly: SPR (Biacore), captured antibody, 37.5 nM peptide injected at 37 C, relative response after 15 sec dissociation. On the procedure: (§3) The anti-PACAP antibodies, e.g., 890C, were tested against related peptides in the Secretin Glucagon family (Table 10) to determine the presence and extent of any off-target binding. Nine bioactive peptides in the glucagon superfamily are: PACAP, VIP, glucagon, Glucagon-Like Peptides (GLP-1, GLP-2), Growth Hormone Releasing Factor (GRF or GHRF), Peptide Histidine Methionine (PHM), secretin, and Gastric inhibitory polypeptide (GIP). Following capture of antibodies as described in example 4, the antibody and the peptide interaction was measured by injection of 37.5 nM of each peptide diluted in buffer at 37° C. with a flow rate of […] for 2 min followed by a dissociation phase of 4-5 min. Samples were injected in a multi-cycle manner over freshly captured anti-PACAP antibody, by regenerating the capture surfaces with two injections of 0.85% phosphoric acid at a flow rate of 30 μL/min.
as §2

Another test has as its target T5, Secretin.
T5 construct: the listing entry is to be used
T5 peptide: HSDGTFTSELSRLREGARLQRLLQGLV
The description is as above. On the procedure: as §3, §2

Another test deals with Glucagon. Described as above. On the procedure: as §3, §2
Chain of Glucagon (peptide, as listed by the source): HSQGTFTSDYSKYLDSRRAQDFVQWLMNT
In test [12] the target is T6, Gastric inhibitory polypeptide (GIP).
T6 peptide: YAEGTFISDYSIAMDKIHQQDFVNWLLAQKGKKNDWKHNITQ
The test is described as above. On the procedure: as §3, §2

Test [13] concerns the target T7, Glucagon-Like Peptide 1 (GLP-1).
T7 peptide: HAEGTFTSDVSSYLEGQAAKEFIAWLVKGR
The test is described as above. Here is the method:
as §3, §2

In test [14] the target is T8, Glucagon-Like Peptide 2 (GLP-2).
T8 peptide: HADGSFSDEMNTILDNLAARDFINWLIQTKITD
The test is described as above. On the procedure: as §3, §2

In test [15] the target is T9, Growth Hormone Releasing Factor (GRF or GHRF).
T9 construct: the listing entry is to be used
T9 peptide: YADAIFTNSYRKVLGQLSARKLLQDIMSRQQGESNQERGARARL
The description is as above. On the procedure:
as §3, §2

Test [16] has as its target T1, vasoactive intestinal peptide (VIP). Kind of test: SPR (Biacore S200), 37 C, captured antibody, steady state binding.
The target in test [17] is T3, pituitary adenylate cyclase-activating …. Briefly: SPR (Biacore S200), 37 C, captured antibody, two-fold dilutions of peptide, 1:1 Langmuir model.
Test [18] has as its target T2, pituitary adenylate cyclase-activating …. The description is as above.

B1: anti-PACAP antibody 890C (antibody, human IgG4 S228P, kappa, V domains shown)
VH: EVQLVQSGAEVKKPGSSVKVSCKASGGTFSDVYMHWVRQAPGQGLEWMGLIYPIFADTRYAQKFQGRVTITADESTSTAYMELSSLRSEDTAVYYCAIDQDGSFAYWGQGTLVTVSS
VL: DIVMTQSPDSLAVSLGERATINCKSSQSLLDADGKTYLNWLQQKPGQPPKRLIYWASTRESGVPDRFSGSGSGTDFTLTISSLQAEDVAVYYCWQGTWFDLTFGGGTKVEIKR
notes: LC S(27E)A, G29, L50W, V51A, K53T, L54R, D55E, H93W, P95D
Usually Kd stands for a measure of binding affinity in units of concentration. Low values mean higher affinity, high ones lower affinity. As usually defined, the koff is the rate constant with which the complex falls apart. A higher koff goes with fast dissociation. What is called kon is a measure of how fast the partners come together. Higher therefore signals faster complex formation. As to B1, the dissociation constant Kd turned out to be 390000 pM in test [1]; 218 pM in [2]; 54 pM in test [3]; 28.4 pM in test [9]; 28.4 pM in [10]. In addition, the “selectivity, inhibition of PACAP38-induced cAMP production (PAC1 cells) versus VIP-induced cAMP production (VPAC1 cells)” value in test [4] was greater than 1000 fold. The “IC50 (nM), inhibition of PACAP-induced cAMP accumulation” value in [5] was 0.32 nM. Besides, the “IC50 (nM), PACAP-induced cAMP accumulation in CHO-K1 receptor cell lines (cAMP-Glo)” value in test [6] was determined as 0.32 nM. In test [7], the “IC50 (read off the curve), PACAP38-induced cAMP production in CHO-K1 cells expressing PAC1” value is roughly 400 pM. Also, in test [8], the “IC50 (read off the curve), VIP-induced cAMP production in CHO-K1 cells expressing VPAC1” value was roughly 600000 pM. Besides, the “fold shift of the VIP/VPAC1 inhibition curve relative to the PACAP/PAC1 inhibition curve (selectivity)” value in test [8] was determined as 1400 fold. Moreover, the off-rate constant (koff) in [9] and in test [10] was 0.000671 s⁻¹ each time. The on-rate constant (kon) in [9] and in test [10] was 2.36e+07 M⁻¹ s⁻¹ throughout. Also, the binding result (in [11]; with Secretin; with Glucagon; in test [12]; in [13]; in [14]) was “no binding (tested: 37.5 nM)” throughout. In addition, in test [15], the binding result is listed as “no binding (tested: 37.5 nM)”.

B2: anti-PACAP antibody 605C (antibody, V domains shown)
VH: EVQLVQSGAEVKKPGSSVKVSCKASGGTFSDSYMHWVRQAPGQGLEWMGLIYPIFADTRYAQKFQGRVTITADESTSTAYMELSSLRSEDTAVYYCAIDQDGSFAYWGQGTLVTVSS
VL: DIVMTQSPDSLAVSLGERATINCKSSQSLLDADGKTYLNWLQQKPGQPPKRLIYWASTRESGVPDRFSGSGSGTDFTLTISSLQAEDVAVYYCWQGTWFDLTFGGGTKVEIK
For the molecule B2, the “IC50 (nM), inhibition of PACAP-induced cAMP accumulation” value in test [5] was found to be 0.15 nM. The dissociation constant (Kd) in test [16] turned out to be 225000 pM; in test [9], 17 pM; in test [17], 32.8 pM; in test [18], 154 pM; in [10], 17 pM. In addition, the koff came out at 0.000566 s⁻¹ in test [9], 0.000565 s⁻¹ in test [17], 0.00101 s⁻¹ in test [18] and 0.000566 s⁻¹ in [10]. The on-rate constant (kon) was 3.33e+07 M⁻¹ s⁻¹ in test [9], 1.72e+07 M⁻¹ s⁻¹ in test [17], 6.58e+06 M⁻¹ s⁻¹ in test [18] and 3.33e+07 M⁻¹ s⁻¹ in test [10].

For the origin of these results see US20260234227A1 (CEPHALON, published 2026).
